Test results: article PMC4383598, “Role of Cysteine Residues in the Structure, Stability, and Alkane Producing Activity of Cyanobacterial Aldehyde Deformylating Oxygenase” (PLoS ONE, 2015)

Molecular target: the molecule itself
Experiment: SEC; Superdex 200pg (124 mL), 500 uL of protein at 2.5 mg/mL, 0.5 mL/min, 10 mM sodium phosphate pH 7.2, 150 mM NaCl; fraction of dimer against monomer

Row | Protein | stoichiometry N
1 | Aldehyde deformylating oxygenase from Nostoc punctiforme PCC 73102, C71S mutant (enzyme, UniProt B2J1M1 1-232, looked up, Aldehyde deformylating oxygenase of Nostoc punctiforme PCC 73102; codon-optimised synthetic gene; Same construct as m1 with the mutation; source: E. coli BL21(DE3)pLysS (pET-15b-AD variant), purified (Ni-agarose, dialysis)) MQQLTDQSKELDFKSETYKDAYSRINAIVIEGEQEAHENYITLAQLLPESHDELIRLSKMESRHKKGFEASGRNLAVTPDLQFAKEFFSGLHQNFQTAAAEGKVVTCLLIQSLIIECFAIAAYNIYIPVADDFARKITEGVVKEEYSHLNFGEVWLKEHFAESKAELELANRQNLPIVWKMLNQVEGDAHTMAMEKDALVEDFMIQYGEALSNIGFSTRDIMRLSAYGLIGA | 2
2 | Aldehyde deformylating oxygenase from Nostoc punctiforme PCC 73102, C71A mutant (enzyme, UniProt B2J1M1 1-232, looked up, Aldehyde deformylating oxygenase of Nostoc punctiforme PCC 73102; codon-optimised synthetic gene; Same construct as m1 with the mutation; source: E. coli BL21(DE3)pLysS (pET-15b-AD variant), purified (Ni-agarose, dialysis)) MQQLTDQSKELDFKSETYKDAYSRINAIVIEGEQEAHENYITLAQLLPESHDELIRLSKMESRHKKGFEAAGRNLAVTPDLQFAKEFFSGLHQNFQTAAAEGKVVTCLLIQSLIIECFAIAAYNIYIPVADDFARKITEGVVKEEYSHLNFGEVWLKEHFAESKAELELANRQNLPIVWKMLNQVEGDAHTMAMEKDALVEDFMIQYGEALSNIGFSTRDIMRLSAYGLIGA | 2
